According to patent US20240350586A1 (TSINGHUA UNIVERSITY, published 2024):

Tests used:
[1] = target: T1, CCT2 D2-P7 fusion protein (Homo sapiens (Human), UniProt P78371 217-519); test: co-IP
T1 construct: D2 domain of CCT2 fused to the P7 peptide of CCT2; also called HA-D2-P7; not shown: HA tag of plasmid pFUGW-HA-D2-P7
T1 sequence: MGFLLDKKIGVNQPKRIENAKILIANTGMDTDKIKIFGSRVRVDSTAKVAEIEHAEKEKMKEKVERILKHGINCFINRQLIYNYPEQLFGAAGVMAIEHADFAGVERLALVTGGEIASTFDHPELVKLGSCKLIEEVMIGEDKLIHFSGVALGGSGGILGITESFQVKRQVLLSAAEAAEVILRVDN
Protocol: (§1) Co-immunoprecipitation was performed essentially as described before. In brief, 24 h after transfection, the cells were collected and lysed on ice for 30 min in co-IP buffer (50 mM Tris/HCl pH 7.4, 150 mM NaCl, 1 mM EDTA, 0.5% NP40) with protease inhibitor mixture, and the lysates were cleared by centrifugation. The resulting supernatants were incubated with indicated agarose or magnetic beads and rotated at 4° C. for 3 h. The agarose was washed five times with co-IP buffer. As for the BFP-tagged Q103, the supernatants were incubated with rabbit anti-BFP antibodies and Protein A/G PLUS-Agarose according to the manufacturers' protocol. After washing, 2×SDS loading buffer was added to the beads, and immunoblot was performed as described previously.

[2] = target: T2, GFP-CCT2 D3 (aa369-535 of CCT2) (human, UniProt P78371 369-535); test: co-IP of GFP-tagged CCT2 variants with T7-LC3C in HEK293T
T2 construct: also called C-terminal one-third of CCT2; not shown: GFP tag
T2 sequence: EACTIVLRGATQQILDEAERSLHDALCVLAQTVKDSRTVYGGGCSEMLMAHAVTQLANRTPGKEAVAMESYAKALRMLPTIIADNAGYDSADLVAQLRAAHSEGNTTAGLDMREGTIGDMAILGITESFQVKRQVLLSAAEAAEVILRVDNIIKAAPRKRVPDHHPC
From the text: The cells were permeabilized with digitonin before fixation. [0136] (G) Quantification of LC3 around Q103-HTT IB (mean±SEM) as shown in (F). […] [0137] […] The cells were permeabilized with digitonin before immunoblot analysis. LE, long exposure; SE, short exposure. [0138] (I) Quantification of normalized Q103-HTT (mean±SEM) in (H). […] [0139] […] The VLIR motif VIL is highlighted in red. [0140] […] The data are representative of three independent experiments. [0141] […] The cells were permeabilized with digitonin before fixation. [0142] (M) Quantification of LC3 around IBs (mean±SEM) as shown in (L). […] [0143] […] [0144] (O) Quantification of normalized Q103-HTT (mean±SEM) in (N).
as §1, with “After washing, 2×SDS loading buffer was added to the beads, and immunoblot was performed as described previously.” left out

HA-CCT5 = target: T3, HA-CCT5 (human, UniProt P48643 2-541); test: co-IP with T7-LC3C in HEK293T
T3 construct: not shown: N-terminal HA tag
T3 sequence (P48643 2-541 limits assumed): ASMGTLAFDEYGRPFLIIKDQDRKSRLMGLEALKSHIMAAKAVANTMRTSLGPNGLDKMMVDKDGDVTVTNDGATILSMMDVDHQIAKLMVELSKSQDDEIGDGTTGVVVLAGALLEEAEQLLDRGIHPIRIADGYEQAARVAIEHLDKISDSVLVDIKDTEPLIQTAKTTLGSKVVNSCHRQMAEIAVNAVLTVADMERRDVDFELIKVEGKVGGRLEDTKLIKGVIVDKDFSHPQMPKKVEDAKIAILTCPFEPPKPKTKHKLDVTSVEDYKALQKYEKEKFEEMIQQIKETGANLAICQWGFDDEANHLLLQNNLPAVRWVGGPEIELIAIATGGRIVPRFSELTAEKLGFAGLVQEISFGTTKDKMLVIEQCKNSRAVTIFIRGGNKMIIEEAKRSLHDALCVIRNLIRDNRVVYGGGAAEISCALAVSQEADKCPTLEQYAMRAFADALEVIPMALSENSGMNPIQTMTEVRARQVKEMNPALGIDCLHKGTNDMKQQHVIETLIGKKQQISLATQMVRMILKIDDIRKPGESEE
Protocol: (§2) The data are representative of three independent experiments. [0146] […] The data are representative of three independent experiments. [0147] […] The data are representative of three independent experiments. [0148] […] The interaction of the peptides with T7-GABARAP or T7-GABARAPL1 proteins was analyzed by in vitro pull-down. The data are representative of three independent experiments. [0149] […] The data are representative of three independent experiments. [0150] […] [0151] (K) Quantification of Q103-HTT-GFP area/DAPI area (mean±SEM) as shown in [0152] (J). 48 h represents IB accumulation stage and 72 h represents clearance stage. P values are indicated (two-tailed t test, >20 views from three independent experiments). [0153] […] The data are representative of three independent experiments. [0154] […] The data are representative of three independent experiments. [0155] […] The data are representative of three independent experiments.
(§3) Co-immunoprecipitation was performed essentially as described before. In brief, 24 h after transfection, the cells were collected and lysed on ice for 30 min in co-IP buffer (50 mM Tris/HCl pH 7.4, 150 mM NaCl, 1 mM EDTA, 0.5% NP40) with protease inhibitor mixture, and the lysates were cleared by centrifugation. The resulting supernatants were incubated with indicated agarose or magnetic beads and rotated at 4° C. for 3 h. The agarose was washed five times with co-IP buffer.

[3] = target: T4, HA-CCT2 (chaperonin subunit CCT2, wild type, N-terminal HA tag) (human, UniProt P78371 2-535); test: co-IP of HA-CCT2 with T7-LC3C in HEK293T with knockdown of P62, NBR1 and TAX1BP1
T4 construct: Expressed in HEK293T or U2OS from pFUGW-HA-CCT2; CCT genes were amplified from HEK293T cDNA; also called WT CCT2; HA-CCT2 WT; not shown: N-terminal HA tag
T4 sequence: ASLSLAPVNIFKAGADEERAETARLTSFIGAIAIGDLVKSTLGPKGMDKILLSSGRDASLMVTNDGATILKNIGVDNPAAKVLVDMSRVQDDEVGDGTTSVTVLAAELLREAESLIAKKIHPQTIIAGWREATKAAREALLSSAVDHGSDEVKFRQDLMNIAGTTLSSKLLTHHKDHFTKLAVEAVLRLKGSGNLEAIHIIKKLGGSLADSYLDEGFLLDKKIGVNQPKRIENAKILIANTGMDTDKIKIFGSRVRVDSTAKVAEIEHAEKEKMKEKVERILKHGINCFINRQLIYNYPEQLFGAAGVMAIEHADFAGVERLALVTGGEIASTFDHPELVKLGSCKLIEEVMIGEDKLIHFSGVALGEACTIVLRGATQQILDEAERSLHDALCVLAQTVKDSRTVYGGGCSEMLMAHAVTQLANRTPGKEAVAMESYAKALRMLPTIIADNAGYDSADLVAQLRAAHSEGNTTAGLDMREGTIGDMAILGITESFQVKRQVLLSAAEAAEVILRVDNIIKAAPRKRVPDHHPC
Protocol: as §2, §3

binding result [1]: binds
binding result [2]: binds
binding result (HA-CCT5): no binding
binding result [3]: binds
B1: T7-LC3C (expressed in cells) (other, UniProt Q9BXW4 1-126, looked up)
chain: MPPPQKIPSVRPFKQRKSLAIRQEEVAGIRAKFPNKIPVVVERYPRETFLPPLDKTKFLVPQELTMTQFLSIIRSRMVLRATEAFYLLVNNKSLVSMSATMAEIYRDYKDEDGFVYMTYASQETFG
notes: Expressed from pCDNA3-T7-LC3C; not shown: T7 tag
